Paper PMC3418248 (2012)

B1: SepF [B. subtilis] / Halo-ZC (HaloTag fused to the final 69 amino acids of B. subtilis FtsZ) [B. subtilis] (parent complex)
chain 1: MSMKNKLKNFFSMEDEEYEYEYIETERESHEEHEQKEKPAYNGNKPAGKQNVVSLQSVQKSSKVVLSEPRVYAEAQEIADHLKNRRAVVVNLQRIQHDQAKRIVDFLSGTVYAIGGDIQRIGSDIFLCTPDNVDVSGTISELISEDEHQRW
chain 2: GFIEQEKDVTKPQRPSLNQSIKTHNQSVPKREPKREEPQQQNTVSRHTSQPADDTLDIPTFLRNRNKRG

Variants of: B1
Test: pull-down (HaloTag bait), densitometric scanning of Coomassie-stained gels; read off a plot

Going from chain 2 F61A to chain 2 D57A, the screen value rises from about 0.03 to about 0.53.

Going from chain 2 R65A to chain 2 K67A, the screen value rises from about 0.42 to about 0.51.

Going from chain 2 D54A to chain 2 T55A, the screen value falls from about 0.9 to about 0.83.

Compared with chain 2 G69A, chain 2 P59A is lower in screen value: about 0.69 for the first, about 0.04 for the second.

Compared with chain 2 T60A, chain 2 R68A is lower in screen value: about 0.66 for the first, about 0.46 for the second.

Going from chain 2 N66A to chain 2 I58A, the screen value falls from about 0.74 to about 0.35.
